# In publication PMC11046469, “Leveraging a Phage-Encoded Noncanonical Amino Acid: A Novel Pathway to Potent and Selective Epigenetic Reader Protein Inhibitors” (ACS Central Science, 2024):
# Molecular target: T1, ENL YEATS domain (AviSUMO-ENL YEATS) (Homo sapiens, UniProt Q03111)
# T1 construct: encoding ENL YEATS (aa 1−148) was cloned in pET28a-; made in house; host or cells: E. coli BL21(DE3pLysS), co-expressed with BirA (pBirAcm)
# T1 sequence (Q03111 1-148): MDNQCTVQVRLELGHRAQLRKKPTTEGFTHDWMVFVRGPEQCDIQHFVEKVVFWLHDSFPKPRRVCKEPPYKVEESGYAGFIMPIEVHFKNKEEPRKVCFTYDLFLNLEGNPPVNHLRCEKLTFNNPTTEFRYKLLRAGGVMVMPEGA
# Test: Phage panning of BuK-containing 7-mer library against AviSUMO-ENL YEATS with Illumina NGS abundance
# Conditions: sheet ENLR3: round 3 of panning against ENL YEATS; TAG = amber codon (BuK); 7-mer library positions V1-V7
# Excerpt: We utilized a previously established amber-obligate 7-mer phage display library to develop a phage display library enriched with BuK-containing 7-mer peptides. For detailed characterizations, including analysis of amber codon percentages, NNK trinucleotide analysis, and amino acid distribution at each position within the library, please refer to the work of Tharp et al.[10] Furthermore, the comprehensive raw NGS data for the amber-obligate 7-mer phage library can be found in the NCBI’s Sequence Read Archive, under the accession ID PRJNA606283. To produce the BuK-containing 7-mer phage library, the phages were produced in the presence of 5 mM BuK using TOP10 cells harboring the following three plasmids: (1) pADL-gIII, which contains the 7-mer amber-obligate peptide-coding DNA library positioned at the N-terminus of M13 pIII gene; (2) pCDF-BuKRS, which encodes BuKRS and its cognate tRNA^Pyl for the genetic incorporation of BuK at amber codons in the 7-mer library; and (3) M13KO7TAA, a helper phage plasmid engineered to have a TAA mutation at pIII so that its lack of a functional pIII allows an efficient multivalent display of the 7-mer library. The ENL YEATS domain containing an N-terminal AviSUMO-Tag was recombinantly expressed in E. coli together with BirA, a biotin ligase, for site-specific biotinylation at the AviTag. The biotinylated AviSUMO-ENL YEATS was immobilized on streptavidin-coated magnetic beads for panning with the BuK-containing phages. […] Phage libraries collected from the first and third rounds of selection were sequenced using Illumina next generation sequencing (NGS) and all sequenced data are available through the NCBI SRA database (Project PRJNA1041845). To prevent possible sequencing errors from affecting conclusions, sequences were filtered using previously published paired-end processing,[10] where any sequences containing more than one mismatch in the nonlibrary region or any mismatch in the library region were discarded. The NGS data provided DNA sequences encompassing both the library and nonlibrary regions. In our analysis, we included data from the nonlibrary region as a stringent quality control measure to filter out low-quality data. For our analysis, we utilized 51 nucleotides from the NGS output, with 21 nucleotides encoding the library region and an additional 30 nucleotides for the nonlibrary region. […] Among all the sequences, only 85 of them contained more than 100 copies (blue area), while the remaining sequences all had low abundances (<10^2 copies, dark and light gray areas), which constituted 85.2% of the first round population. After three panning rounds, the selection converged to two highly enriched sequences: YDVYCYX (ENL-S1) and WWIIEXG (ENL-S2, X denotes BuK). Out of 551 different unique sequences collected from the third round, ENL-S1 and ENL-S2 represented 85% of the entire library (Figure 2A and Figures S6–S8). Both peptide sequences corresponded to their own unique DNA sequence, rather than there being varying codons encoding the same amino acids (Figure S7). […] Two motifs were found in the majority of sequences with high abundance (greater than 0.1%) (Figure S6). A Y(C/L)Y pattern was identified in the residues adjacent to BuK in four of the eight top sequences. Also, an H(L/Y)(T/V)LFXG (X denotes BuK) motif was observed, albeit at lower abundances, in two of the top sequences. In the initial round of selection, we observed that only a small percentage of phages were eluted, which aligns with typical outcomes in phage selection experiments since only a low copy number of phages can bind to the target.[10],[45] With each successive round of selection, we noted a gradual increase in the percentage of phages eluted. This incremental, rather than sharp, increase was attributed to the intensification of selection pressures, such as the application of more stringent washing protocols. We aimed for the incremental increase to retain potent clones with low copy numbers from the previous selection cycle. […]
Substance,n (number of NGS reads of the unique amino acid sequence),percent (share of sequence reads)
HYVLFTAGW,1,0.0009106%
HYVLFYG,1,0.0009106%
IGSIHYTAG,1,0.0009106%
IHVYCTAGV,1,0.0009106%
ILATAGSVN,1,0.0009106%
ILIYTAGGD,4,0.003642%
IMCYPFTAG,28,0.0255%
IQTAGITAS,1,0.0009106%
IRCHPWTAG,1,0.0009106%
KCGPRTAGD,9,0.008196%
KMPFTAGIS,1,0.0009106%
KVTAGGGGV,1,0.0009106%
LAYCTAGHN,2,0.001821%
LCGPRTAGD,1,0.0009106%
LFIALPTAG,1,0.0009106%
LLAFLWL,1,0.0009106%
LLIIETAGG,1,0.0009106%
LLWTAGLAS,1,0.0009106%
LNAEFTAGA,1,0.0009106%
LTAGMPRSF,1,0.0009106%
LTAGSSASG,1,0.0009106%

Substance,n (number of NGS reads of the unique amino acid sequence),percent (share of sequence reads)
LTAGTVLDP,1,0.0009106%
LTCYCYTAG,39,0.03551%
LWIFTPTAG,4,0.003642%
LWIIETAGG,26,0.02368%
LYGSTAGDC,1,0.0009106%
MFTAGITDN,1,0.0009106%
MTAGGLRHS,1,0.0009106%
NAIYCYTAG,1,0.0009106%
NCPTAGFNL,1,0.0009106%
QCCPRTAGD,10,0.009106%
QCGLRTAGD,4,0.003642%
QCGPLTAGD,10,0.009106%
QCGPQTAGD,2,0.001821%
QCGPRTAGD,9049,8.24%
QCGPRTAGN,3,0.002732%
QCGPRTAGY,10,0.009106%
QCGPRYD,11,0.01002%
QCGPWTAGD,4,0.003642%
QCGQRTAGD,10,0.009106%
QCGSRTAGD,3,0.002732%
QCGTRTAGD,13,0.01184%

# Same assay, conditions: sheet ENLR3: round 3 of selection against ENL YEATS; TAG = amber codon (BuK)
Substance,n (number of NGS reads of the 7-mer sequence V1-V7),percent (share of NGS reads of the 7-mer sequence V1-V7)
NLTLFTAGG,1,0.0009106%
NTAGNIGLY,1,0.0009106%
NTITAGISL,1,0.0009106%
NYVLFTAGG,1,0.0009106%
QCAPRTAGD,1,0.0009106%
QCDPRTAGD,1,0.0009106%
QCGPPTAGD,1,0.0009106%
QCGPRQD,1,0.0009106%
QCGPRTAGE,1,0.0009106%
QCGPRTAGG,1,0.0009106%
QCGPRTAGV,1,0.0009106%
QCGPRWD,1,0.0009106%
QCGPWTAGG,1,0.0009106%
